Experimental data taken from article PMC4080824, “Altered native stability is the dominant basis for susceptibility of α1-antitrypsin mutants to polymerization” (Biochemical Journal, 2014).
Numbering of substitutions follows the chain as printed. Names may count otherwise.

B1: α1-antitrypsin C232S E162C/V170C (162–170) (natural protein)
chain: DPQGDAAQKTDTSHHDQDHPTFNKITPNLAEFAFSLYRQLAHQSNSTNIFFSPVSIATAFAMLSLGTKADTHDEILEGLNFNLTEIPEAQIHEGFQELLRTLNQPDSQLQLTTGNGLFLSEGLKLVDKFLEDVKKLYHSEAFTVNFGDTEEAKKQINDYVCKGTQGKICDLVKELDRDTVFALVNYIFFKGKWERPFEVKDTEEEDFHVDQVTTVKVPMMKRLGMFNIQHSKKLSSWVLLMKYLGNATAIFFLPDEGKLQHLENELTHDIITKFLENEDRRSASLHLPKLSITGTYDLKSVLGQLGITKVFSNGADLSGVTEEAPLKLSKAVHKAVLTIDEKGTEAAGAMFLEAIPMSIPPEVKFNKPFVFLMIEQNTKSPLFMGKVVNPTQK
modifications: disulfide bond between C162 and C170 (predominantly in the disulfide-bonded form, >90%); reduced where treated with 100 mM 2-mercaptoethanol
notes: α1-antitrypsin, wild-type (M) ORF on the C232S background; Same construct as m3 with the stated changes; source: E. coli SG13009/pREP4 (pQE-30) or BL21(DE3) (pQE-81L), purified; not shown: His6, N-terminal, kept
B2: α1-antitrypsin C232S S283C/P361C (283–361) (natural protein)
chain: B1 chain with C161E, C169V, S282C, P360C
modifications: disulfide bond between C283 and C361 (predominantly in the disulfide-bonded form, >90%); reduced where treated with 100 mM 2-mercaptoethanol
notes: as for B1
B3: α1-antitrypsin C232S K168C/F189C (168–189) (natural protein)
chain: B1 chain with C161E, K167C, C169V, F188C
modifications: disulfide bond between C168 and C189 (predominantly in the disulfide-bonded form, >90%); reduced where treated with 100 mM 2-mercaptoethanol
notes: as for B1
B4: α1-antitrypsin C232S S292C/T339C (292–339) (natural protein)
chain: B1 chain with C161E, C169V, S291C, T338C
modifications: disulfide bond between C292 and C339 (predominantly in the disulfide-bonded form, >90%); reduced where treated with 100 mM 2-mercaptoethanol
notes: as for B1

Assays:
[1] = molecular target: bovine α-chymotrypsin (bovine); experiment: stoichiometry of inhibition by titration of enzyme activity; inhibitor incubated with 0.5 μM bovine α-chymotrypsin for 30 min at room temperature (21°C) in 20 mM Tris/HCl, 0.1 M NaCl, 0.1% PEG 8000, 10 mM CaCl2 pH 8.0; residual activity on N-succinyl-Ala-Ala-Pro-Phe-p-nitroanilide
[2] = molecular target: bovine α-chymotrypsin (bovine); experiment: stoichiometry of inhibition by titration of enzyme activity; as the stoichiometry of inhibition assay, protein treated with 100 mM 2-mercaptoethanol (reduced)
[3] = molecular target: the molecule itself; experiment: FRET or BRET; mutant series; 0.2 mg/ml protein, 4 μM Atto550–Ni-NTA and 4 μM Atto647N–Ni-NTA on the His6 tag, 10 mM NaH2PO4/Na2HPO4, 100 mM NaCl pH 7.4; heat-induced polymerization at 55°C; time to half-maximal signal
[4] = molecular target: the molecule itself; experiment: FRET or BRET; mutant series; 0.2 mg/ml protein, 4 μM Atto550–Ni-NTA and 4 μM Atto647N–Ni-NTA on the His6 tag, 10 mM NaH2PO4/Na2HPO4, 100 mM NaCl pH 7.4; heat-induced polymerization at 65°C; time to half-maximal signal
[5] = molecular target: the molecule itself; experiment: FRET or BRET; mutant series; 0.2 mg/ml protein, 4 μM Atto550–Ni-NTA and 4 μM Atto647N–Ni-NTA on the His6 tag, 10 mM NaH2PO4/Na2HPO4, 100 mM NaCl pH 7.4; heat-induced polymerization at 60°C; time to half-maximal signal

Molecule | SI (stoichiometry of inhibition) [1] | SI (stoichiometry of inhibition) [2] | polymerization half-time (t0.5) [3] [s] | polymerization half-time (t0.5) [4] [s] | polymerization half-time (t0.5) [5] [s]
α1-antitrypsin C232S (AT_(C232S)) (from UniProt P01009 26-418) (natural protein) | 1.1 | – | – | – | –
α1-antitrypsin C232S E162C/V170C (162–170) (from UniProt P01009 26-418) (natural protein) | 1 | 1 | – | – | –
α1-antitrypsin C232S S283C/P361C (283–361) (from UniProt P01009 26-418) (natural protein) | 1 | 1 | – | – | –
α1-antitrypsin C232S K168C/F189C (168–189) (from UniProt P01009 26-418) (natural protein) | 8.5 | – | – | – | –
α1-antitrypsin C232S K191C/T339C (191–339) (from UniProt P01009 26-418) (natural protein) | – | 1 | – | – | –
α1-antitrypsin C232S K335A (from UniProt P01009 26-418) (natural protein) | 1 | – | – | – | –
α1-antitrypsin C232S S292C/T339C (292–339) (from UniProt P01009 26-418) (natural protein) | 1 | 1 | – | – | –
α1-antitrypsin C232S K331V (from UniProt P01009 26-418) (natural protein) | 3.9 | – | – | – | –
B1 | – | – | 3930 | 226 | 941
B2 | – | – | 8970 | 37 | 1430
B3 | – | – | 21900 | 1010 | 8870
B4 | – | – | 2290 | 51 | 307
